This data set concerns the target EGFR wild-type extracellular domain (human, UniProt P00533 25-645). Nature of the data set: UV (254 nm) cross-linking MALDI-MS; 1:1 molar; peptide 495-500 (domain IV) linked to AGGC and GAGGC; RT-qPCR: 15 min 37 C, 100 ug/ml polyinosine, DPBS washes; flow cytometry: DPBS, 37 C, 30 min; confocal: DMEM without FBS; UV cross-linking buffer not given. The settings on record: protein: recombinant.

GCCUUAGUAACGUGCUUUGAUGUCGAUUCGACAGGAGGC (structured_RNA, 2'F-pyrimidines (2'F-C, 2'F-U)) [CL4]: the binding result is “binds”.

These data come from article PMC4741949, “Aptamer targeting EGFRvIII mutant hampers its constitutive autophosphorylation and affects migration, invasion and proliferation of glioblastoma cells”.
